The text below walks through data of patent publication US20210380678A1 (SURROZEN OPERATING, published 2021).

Test [1] addresses T1, human ASGR1 extracellular domain (hASGR1 ECD) (human, UniProt P07306 62-291, biotinylated (His-Avi tag)).
T1 construct: His-Avi tag at the N-terminus, biotinylated for BLI; also called human ASGR1 ECD
T1 sequence: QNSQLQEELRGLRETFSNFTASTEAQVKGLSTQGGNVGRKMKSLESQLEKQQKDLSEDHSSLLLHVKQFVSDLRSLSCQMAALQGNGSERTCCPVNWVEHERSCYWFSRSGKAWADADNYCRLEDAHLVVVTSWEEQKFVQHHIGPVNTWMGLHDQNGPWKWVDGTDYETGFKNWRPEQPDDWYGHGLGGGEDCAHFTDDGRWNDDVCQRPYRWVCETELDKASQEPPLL
Description: BLI (Octet), Fab on biotinylated ASGR1 ECD, curve model fitting; Kd only in FIG. 9A. As to the method: (§1) Affinity measurement: Binding kinetics of the RSPO-derived proteins to LGRS, RNF43, or ZNRF3, and binding of the anti-ASGR Fabs to human and/or mouse ASGR1 were determined by bio-layer interferometry (BLI) using Octet Red 96 (PALL ForteBio, Fremont, CA) instruments at 30° C., 1000 rpm with either streptavidin (SA) or anti-hIgG Fc capture (AHC) biosensors. […] Following capture of ECDs of RNF43, ZNRF3 or LGRS, the biosensors were dipped into wells containing the relevant test molecules at 7 different concentrations in running buffer plus a well with only running buffer as a reference channel. KD was determined by steady-state analysis based on the average responses between 140 to 145 seconds of association phase, for binding to LGRS, RNF43, and ZNRF3. For the binding to ASGR, KD was determined by curve model fitting using the Octet® Red data analysis software (Fortebio)

Test [2] addresses T2, mouse ASGR1 extracellular domain (mASGR1 ECD) (mouse, biotinylated (His-Avi tag)).
T2 construct: His-Avi tag at the C-terminus, biotinylated; also called murine ASGR1; mouse ASGR1 (Q61-N284)
T2 chain: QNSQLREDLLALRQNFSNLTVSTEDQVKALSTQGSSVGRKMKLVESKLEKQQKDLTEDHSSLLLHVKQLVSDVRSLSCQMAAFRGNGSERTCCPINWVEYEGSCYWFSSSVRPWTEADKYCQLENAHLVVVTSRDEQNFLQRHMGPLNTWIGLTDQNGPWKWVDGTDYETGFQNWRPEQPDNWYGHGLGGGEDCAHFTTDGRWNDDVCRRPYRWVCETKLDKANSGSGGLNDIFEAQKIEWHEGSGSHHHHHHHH
The description is as above. How it is done:
as §1

The target of test [3] is T1, human ASGR1 extracellular domain …. Description: BLI, Fab on hASGR1. For orientation: BLI is a label-free optical method that tracks binding on a fibre tip over time.
In test [4] the target is T3, Fc portion of human IgG1-fused LGR5-ECD (R&D systems) (human, UniProt O75473 22-557, limits assumed).
T3 construct: extracellular domain; Bought reagent; also called LGRS; recombinant LGR5 protein; not shown: Fc portion of human IgG1
T3 sequence (looked up): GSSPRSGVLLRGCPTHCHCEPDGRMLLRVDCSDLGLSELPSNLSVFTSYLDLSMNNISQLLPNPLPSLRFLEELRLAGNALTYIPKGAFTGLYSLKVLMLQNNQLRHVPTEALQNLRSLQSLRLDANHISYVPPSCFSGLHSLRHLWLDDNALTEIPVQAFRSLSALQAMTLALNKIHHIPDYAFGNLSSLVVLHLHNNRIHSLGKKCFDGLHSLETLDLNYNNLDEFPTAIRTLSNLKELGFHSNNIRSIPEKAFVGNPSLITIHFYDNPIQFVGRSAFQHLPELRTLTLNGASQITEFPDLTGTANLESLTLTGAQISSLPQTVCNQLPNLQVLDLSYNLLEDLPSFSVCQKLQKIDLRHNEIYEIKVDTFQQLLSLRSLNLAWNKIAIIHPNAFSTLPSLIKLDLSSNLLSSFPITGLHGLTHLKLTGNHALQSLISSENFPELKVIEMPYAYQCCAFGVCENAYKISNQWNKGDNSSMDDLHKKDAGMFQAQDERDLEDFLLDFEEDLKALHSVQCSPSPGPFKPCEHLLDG
Description: BLI (Octet), LGR5-ECD-Fc on AHC sensor. As to the method: as §1

Test [5] addresses T4, human RNF43 extracellular domain (hRNF43 ECD) (human, UniProt Q68DV7 44-197, biotinylated (His-Avi tag)).
T4 construct: Expressed with a His-Avi tag at the N-terminus and biotinylated; also called human RNF3 (Q44-D198)
T4 sequence: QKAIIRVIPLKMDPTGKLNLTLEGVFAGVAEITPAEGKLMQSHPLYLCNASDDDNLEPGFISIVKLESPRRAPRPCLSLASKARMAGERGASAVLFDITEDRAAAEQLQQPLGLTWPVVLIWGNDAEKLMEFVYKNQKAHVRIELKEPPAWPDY
Put plainly: BLI (Octet), biotinylated RNF43 ECD on SA sensor. As to the method: as §1

In test [6] the target is T5, human ZNRF3 extracellular domain (hZNRF3 ECD) (human, UniProt Q9ULT6 56-219, biotinylated (His-Avi tag)).
T5 construct: Expressed with a His-Avi tag at the N-terminus and biotinylated; also called ZRNF3
T5 sequence: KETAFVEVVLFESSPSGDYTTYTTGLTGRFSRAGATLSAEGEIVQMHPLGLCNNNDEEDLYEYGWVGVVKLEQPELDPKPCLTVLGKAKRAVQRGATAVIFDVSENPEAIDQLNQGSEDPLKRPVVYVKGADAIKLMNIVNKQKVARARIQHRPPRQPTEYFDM
Put plainly: BLI (Octet), biotinylated ZNRF3 ECD on SA sensor. How it is done: as §1

The target in test [7] is T6, human ASGR2 extracellular domain (hASGR2 ECD) (human, UniProt P07307 86-311, biotinylated (His/Avi tag)).
T6 construct: Cloned with a His/Avi tag
T6 sequence: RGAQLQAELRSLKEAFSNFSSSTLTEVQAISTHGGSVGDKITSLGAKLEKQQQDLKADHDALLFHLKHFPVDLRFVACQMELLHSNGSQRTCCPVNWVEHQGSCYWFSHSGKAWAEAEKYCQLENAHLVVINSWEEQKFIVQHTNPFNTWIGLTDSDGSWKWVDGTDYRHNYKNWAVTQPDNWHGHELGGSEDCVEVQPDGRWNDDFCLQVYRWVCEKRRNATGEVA
Put plainly: BLI, Fab on hASGR2.

B1: anti-ASGR1 Fab (Fab, V domains shown)
VH: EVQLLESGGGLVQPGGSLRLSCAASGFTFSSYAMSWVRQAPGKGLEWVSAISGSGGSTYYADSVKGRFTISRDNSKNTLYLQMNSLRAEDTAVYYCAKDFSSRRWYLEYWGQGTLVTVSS
VL: DIELTQDPAVSVALGQTVRITCQGDSLRSYYASWYQQKPGQAPVLVIYGKNNRPSGIPDRFSGSSSGNTASLTITGAQAEDEADYYCNSLERIGYLSYVFGGGTKLTVLG
notes: Made with a (His)6 tag at the C-terminus of the human IgG1 CH1 domain after a 5-mer linker (GSGSG); also called αASGR1 antibody (e.g., RO-01) expressed as a Fab
For B1, the binding result in test [1] and in test [2] was “binds” throughout.

B2: LP1-8M24 Fab (Fab, V domains shown)
VH: QVQLQQSGAELARPGASVKLSCKASGYTFTNYGINWVKQRTGQGLEWIGEIFPRSDNTFYNEKFKGKATLTADKSSTTAYMELRSLTSEDSAVYFCARKGRDYGTSHYFDYWGQGTTLTVSS
VL: DIQMTQSPASLSVSVGETVTITCRISENIYSNLAWYQQKQGKSPHLLVYAAINLADGVPSRFSGSGSGTQFSLKINSLQSEDFGSYYCQHFWGTPFTFGSGTKLEIK
notes: Tested as Fab, from hybridoma development
On to B2, for which the binding result in test [3] is recorded as “binds”.

B3: LP1-2I13 Fab (Fab, V domains shown)
VH: EVQLVESGGGLVKPGGSRKLSCAASGFTFSDYGMHWVRQAPEKGLEWVAYISSGSSTIYYADTVKGRFTISRDNAKNTLFLQMTSLRSEDTAMYYCSRKGGFGDYEKSYAMDYWGQGTSVTVSS
VL: DIQMTQSPASLSASVGETVTITCRASENIYSYLVWYQQKQGKSPQLLVYNAKTLAEGVPSRFSGSGSGTQFSLKINSLQPEDFGSYYCQHHYGTWTFGGGIKLEIK
notes: as for B2
Consider B3, for which, in test [3], the binding result is recorded as “binds”.

B4: αGFP-RSPO2-RA (anti-GFP, RSPO2 (F105R/F109A)) (other)
chain: QVQLVESGGGLVQPGGSLRLSCAASGFTFSRYGMHWVRQAPGKGLEWVSGISSIGSNTYYADSVKGRFTISRDNSKNTLYLQMNSLRAEDTAVYYCARWYKTYIDVWGQGTLVTVSSGGGGSGGGGSGGGGSDIELTQPPSVSVAPGQTARISCSGDNLGKKYVYWYQQKPGQAPVLVIYGDDERPSGIPERFSGSNSGNTATLTISGTQAEDEADYYCASYDSSHILIVFGGGTKLTVLGSGGSNPICKGCLSCSKDNGCSRCQQKLFFFLRREGMRQYGECLHSCPSGYYGHRAPDMNRCARCRIENCDSCRSKDACTKCKVGFYLHRGRCFDECPDGFAPLEETMECVEGGDYKDDDDKGSHHHHHHHH
notes: scFv against GFP fused to the RSPO2 Fu1-Fu2 fragment with F105R/F109A; FLAG-His tag
On to B4, for which the binding result is reported as “no binding” in test [4], “binds” in test [5] and “binds” in test [6].

B5: Abv-3D11 Fab (Fab, V domains shown)
VH: EVQLVESGGGLVQPKGSLKLSCAASGFSFNTYAMNWVRQAPGKGLEWVARIRSKSNNYATYYADSVKDRFTISRDDSESMLYLQMNNLKTEDTAMYYCVRPRYDYWYFDVWGTGTTVTVSS
VL: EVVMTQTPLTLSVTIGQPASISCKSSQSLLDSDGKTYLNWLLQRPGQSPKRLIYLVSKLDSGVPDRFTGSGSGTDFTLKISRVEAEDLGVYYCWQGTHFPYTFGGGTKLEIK
notes: as for B2
In the case of B5, the binding result in test [7] is reported as “binds”.

B6: Abv-10B8 Fab (Fab, V domains shown)
VH: DVKLVESGEGLVKPGGSLKLSCAASGFTFSSYAMSWVRQTPEKRLEWVAYISSGGDYIYYVDTVKGRFTISRDNARNTLYLQMSSLKSEDTAVYYCTREGTGGMDYWGQGTSVTVSS
VL: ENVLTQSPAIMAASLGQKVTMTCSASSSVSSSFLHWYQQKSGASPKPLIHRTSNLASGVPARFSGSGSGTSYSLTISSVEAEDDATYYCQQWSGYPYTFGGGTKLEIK
notes: as for B2
For the molecule B6, in test [7], the binding result is reported as “binds”.
